In data set [1] the target is T1, PfMCMN R124A (Pyrococcus furiosus, UniProt Q8U3I4 1-256, R124A).
T1 sequence: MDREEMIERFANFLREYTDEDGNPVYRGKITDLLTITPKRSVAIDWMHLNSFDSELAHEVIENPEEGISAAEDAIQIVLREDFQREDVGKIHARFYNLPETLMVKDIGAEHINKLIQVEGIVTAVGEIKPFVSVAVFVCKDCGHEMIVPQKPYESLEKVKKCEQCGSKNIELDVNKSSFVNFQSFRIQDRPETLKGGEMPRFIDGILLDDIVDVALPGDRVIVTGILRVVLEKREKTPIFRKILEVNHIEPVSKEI
In words: EMSA; 5 mM Mg2+; EMSA: 20 mM HEPES pH 7.6, 200 mM NaCl, 5 mM MgCl2, 5 mM bME, 25 C, 30 min, 160 nM DNA; 4-20% TBE PAGE. As to conditions: protein: recombinant; tags: His6-SUMO removed by Ulp1; label: 5'-fluorescein on strand 1; blunt. On the technique in general: A gel shift assay detects complexes by their altered migration in electrophoresis.

The target of data set [2] is T2, PfMCMN R186A (Pyrococcus furiosus, UniProt Q8U3I4 1-256, R186A).
T2 sequence: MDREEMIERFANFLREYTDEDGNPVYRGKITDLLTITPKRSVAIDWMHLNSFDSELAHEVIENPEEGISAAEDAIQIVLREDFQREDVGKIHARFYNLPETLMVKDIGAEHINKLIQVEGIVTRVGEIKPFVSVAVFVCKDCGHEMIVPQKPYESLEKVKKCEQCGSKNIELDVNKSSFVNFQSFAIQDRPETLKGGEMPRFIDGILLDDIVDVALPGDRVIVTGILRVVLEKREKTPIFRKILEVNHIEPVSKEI
The description is as above. Conditions: protein: recombinant; tags: His6-SUMO removed by Ulp1; label: 5'-fluorescein on strand 1; blunt.

For data set [3], the target named is T3, PfMCMN K129A (Pyrococcus furiosus, UniProt Q8U3I4 1-256, K129A).
T3 sequence: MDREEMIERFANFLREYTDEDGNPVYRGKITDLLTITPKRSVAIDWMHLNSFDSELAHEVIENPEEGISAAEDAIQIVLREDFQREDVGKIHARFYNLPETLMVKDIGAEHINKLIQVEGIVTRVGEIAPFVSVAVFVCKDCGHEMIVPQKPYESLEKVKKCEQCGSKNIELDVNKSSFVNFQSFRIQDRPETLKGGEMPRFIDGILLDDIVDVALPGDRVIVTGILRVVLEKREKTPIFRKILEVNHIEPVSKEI
The data set is described as above. As to conditions: protein: recombinant; tags: His6-SUMO removed by Ulp1; label: 5'-fluorescein on strand 1; blunt.

In data set [4] the target is T4, PfMCMN R124A/R186A (Pyrococcus furiosus, UniProt Q8U3I4 1-256, R124A;R186A).
T4 sequence: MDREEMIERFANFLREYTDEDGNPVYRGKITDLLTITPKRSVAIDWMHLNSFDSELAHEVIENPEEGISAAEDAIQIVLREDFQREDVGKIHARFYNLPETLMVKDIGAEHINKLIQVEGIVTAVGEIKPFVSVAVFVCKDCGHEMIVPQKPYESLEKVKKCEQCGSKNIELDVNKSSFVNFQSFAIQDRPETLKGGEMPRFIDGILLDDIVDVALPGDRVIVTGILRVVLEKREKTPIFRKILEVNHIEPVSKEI
In words: EMSA; 5 mM Mg2+; protein 10-40 uM; EMSA: 20 mM HEPES pH 7.6, 200 mM NaCl, 5 mM MgCl2, 5 mM bME, 25 C, 30 min, 160 nM DNA; 4-20% TBE PAGE. As to conditions: protein: recombinant; tags: His6-SUMO removed by Ulp1; label: 5'-fluorescein on strand 1; blunt.

The target of the next data set is T5, PfMCMN K233A (Pyrococcus furiosus, UniProt Q8U3I4 1-256, K233A).
T5 sequence: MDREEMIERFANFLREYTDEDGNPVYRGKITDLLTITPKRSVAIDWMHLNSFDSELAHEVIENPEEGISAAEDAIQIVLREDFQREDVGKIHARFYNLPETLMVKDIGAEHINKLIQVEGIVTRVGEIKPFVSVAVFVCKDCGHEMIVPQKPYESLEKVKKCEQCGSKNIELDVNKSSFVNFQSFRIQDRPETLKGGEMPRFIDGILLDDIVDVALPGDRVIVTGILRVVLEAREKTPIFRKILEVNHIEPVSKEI
The data set can be described thus: EMSA; 5 mM Mg2+; EMSA: 20 mM HEPES pH 7.6, 200 mM NaCl, 5 mM MgCl2, 5 mM bME, 25 C, 30 min, 160 nM DNA; 4-20% TBE PAGE. As to conditions: protein: recombinant; tags: His6-SUMO removed by Ulp1; label: 5'-fluorescein.

The target in the next data set is T6, PfMCMN F202A (Pyrococcus furiosus, UniProt Q8U3I4 1-256, F202A).
T6 sequence: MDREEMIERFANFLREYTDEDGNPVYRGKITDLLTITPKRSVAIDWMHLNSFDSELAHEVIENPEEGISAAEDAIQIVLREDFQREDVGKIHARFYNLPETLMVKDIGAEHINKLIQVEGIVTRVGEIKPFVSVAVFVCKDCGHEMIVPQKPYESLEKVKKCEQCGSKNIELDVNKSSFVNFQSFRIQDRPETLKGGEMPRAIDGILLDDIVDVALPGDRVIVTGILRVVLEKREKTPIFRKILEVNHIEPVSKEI
The data set is described as above. As to conditions: protein: recombinant; tags: His6-SUMO removed by Ulp1; label: 5'-fluorescein.

Data set [5] deals with T1, PfMCMN R124A. The data set is described as above. As to conditions: protein: recombinant; tags: His6-SUMO removed by Ulp1; label: 5'-fluorescein.
Data set [6] has as its target T2, PfMCMN R186A. The data set is described as above. Conditions: protein: recombinant; tags: His6-SUMO removed by Ulp1; label: 5'-fluorescein.
For data set [7], the target named is T3, PfMCMN K129A. The description is as above. As to conditions: protein: recombinant; tags: His6-SUMO removed by Ulp1; label: 5'-fluorescein.
The target in data set [8] is T4, PfMCMN R124A/R186A. In words: EMSA; 5 mM Mg2+; protein 54-270 uM; EMSA: 20 mM HEPES pH 7.6, 200 mM NaCl, 5 mM MgCl2, 5 mM bME, 25 C, 30 min, 160 nM DNA; 4-20% TBE PAGE. As to conditions: protein: recombinant; tags: His6-SUMO removed by Ulp1; label: 5'-fluorescein.

B1: 26-mer dsDNA (dsDNA)
DNA 1: ATGGCAGATCTCAATTGGATATCGGC
DNA 2: GCCGATATCCAATTGAGATCTGCCAT
For B1, the binding result in the data set with PfMCMN R124A [1], with PfMCMN R186A [2] and in the data set with PfMCMN K129A [3] was “binds” each time. Moreover, in the data set with PfMCMN R124A/R186A [4], the binding signal is 3 fold reduction vs WT.
For TTTTTTTTTTTTTTTTTTTTTTTTTTTTTTTTTTTTTTTT (ssDNA) [T40 ssDNA], the binding result with PfMCMN K233A and with PfMCMN F202A was “binds” each time. Besides, the binding signal was found to be 7 fold reduction vs WT with PfMCMN R124A [5], 6 fold reduction vs WT with PfMCMN R186A [6], 4 fold reduction vs WT in the data set with PfMCMN K129A [7] and 25 fold reduction vs WT with PfMCMN R124A/R186A [8].
